These results are taken from patent publication US20170306033A1 (Amgen, published 2017).

For one assay, the target named is T1, human PAC1 receptor (human, UniProt P41586 21-468).
T1 sequence: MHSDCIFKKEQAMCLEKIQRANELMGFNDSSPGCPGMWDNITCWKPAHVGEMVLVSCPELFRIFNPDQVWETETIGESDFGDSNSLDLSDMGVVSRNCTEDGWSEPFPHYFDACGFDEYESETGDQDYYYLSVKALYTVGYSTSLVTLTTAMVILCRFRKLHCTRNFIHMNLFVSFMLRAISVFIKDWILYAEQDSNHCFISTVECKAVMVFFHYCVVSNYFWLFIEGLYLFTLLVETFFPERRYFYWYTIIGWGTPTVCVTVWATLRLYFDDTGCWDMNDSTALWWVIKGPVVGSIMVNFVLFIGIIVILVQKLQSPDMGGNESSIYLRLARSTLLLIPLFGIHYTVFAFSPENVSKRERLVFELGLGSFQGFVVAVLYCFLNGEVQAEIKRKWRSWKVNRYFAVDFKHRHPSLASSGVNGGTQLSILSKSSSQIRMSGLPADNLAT
Kind of assay: cell-based or functional assay.

A further assay addresses human CGRP receptor (human, UniProt Q16602 23-461; O60894 27-148). As to the kind of experiment: cell-based or functional assay.

Sequence of human CGRP receptor (Q16602 23-461 limits assumed, chain 1 of 2): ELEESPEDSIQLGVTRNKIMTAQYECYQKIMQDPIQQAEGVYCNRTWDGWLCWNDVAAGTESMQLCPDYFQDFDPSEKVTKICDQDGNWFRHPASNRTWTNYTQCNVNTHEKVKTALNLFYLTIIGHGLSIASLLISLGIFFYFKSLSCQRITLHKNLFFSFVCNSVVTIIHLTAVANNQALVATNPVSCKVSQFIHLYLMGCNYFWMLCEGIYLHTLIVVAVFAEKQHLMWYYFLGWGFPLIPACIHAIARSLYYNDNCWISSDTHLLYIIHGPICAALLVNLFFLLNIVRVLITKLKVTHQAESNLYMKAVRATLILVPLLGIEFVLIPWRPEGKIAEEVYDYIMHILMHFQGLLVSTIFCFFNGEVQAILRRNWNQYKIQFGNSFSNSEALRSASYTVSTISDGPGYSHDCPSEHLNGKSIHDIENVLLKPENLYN
Sequence of human CGRP receptor (O60894 27-148 limits assumed, chain 2 of 2): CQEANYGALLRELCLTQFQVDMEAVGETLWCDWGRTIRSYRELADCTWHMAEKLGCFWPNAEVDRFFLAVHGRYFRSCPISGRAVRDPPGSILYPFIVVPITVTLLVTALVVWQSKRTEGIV

B1: iPS:327697 (bispecific antibody, human IgG1, kappa, lambda, N297G)
light 1: DIQLTQSPSFLSASVGDRVTITCRASQSIGRSLHWYQQKPGKAPKLLIKYASQSLSGVPSRFSGSGSGTEFTLTISSLQPEDFATYYCHQSSRLPFTFGEGTKVDIKRTVAAPSVFIFPPSDEQLKSGTASVVCLLNNFYPREAKVQWKVDNALQSGNSQESVTEQDSKDSTYSLESTLTLSKADYEKHKVYACEVTHQGLSSPVTKSFNRGEC
heavy 1: not shown
light 2: QSVLTQPPSVSAAPGQKVTISCSGSSSNIGNNYVSWYQQLPGTAPKLLIYDNNKRPSGIPDRFSGSKSGTSTTLGITGLQTGDEADYYCGTWDSRLSAVVFGKGTKLTVLGQPKANPTVTLFPPSSEELQANKATLVCLISDFYPGAVTVAWKADGSPVKAGVETTKPSKQSNNKYAAKSYLSLTPEQWKSHRSYSCQVTHEGSTVEKTVAPTECS
heavy 2: QVQLVESGGGVVQPGRSLRLSCAASGFTFSSFGMHWVRQAPGKELEWVAVISFDGSIKYSVDSVKGRFTISRDNSKNTLFLQMNSLRAEDTAVYYCARDRLNYYESSGYYHYKYYGMAVWGQGTTVTVSSASTKGPSVFPLAPSSKSTSGGTAALGCLVKDYFPEPVTVSWNSGALTSGVHTFPAVLQSSGLYSLESVVTVPSSSLGTQTYICNVNHKPSNTKVDKKVEPKSCDKTHTCPPCPAPELLGGPSVFLFPPKPKDTLMISRTPEVTCVVVDVSHEDPEVKFNWYVDGVEVHNAKTKPCEEQYGSTYRCVSVLTVLHQDWLNGKEYKCKVSNKALPAPIEKTISKAKGQPREPQVYTLPPSRKEMTKNQVSLTCLVKGFYPSDIAVEWESNGQPENNYKTTPPVLKSDGSFFLYSKLTVDKSRWQQGNVFSCSVMHEALHNHYTQKSLSLSPGK
As to B1, the “% inhibition of human PAC1” value in the assay with human PAC1 receptor was 39%. Moreover, in the assay with human CGRP receptor, the “% inhibition of human CGRPR” value turned out to be 88%.

B2: iPS:327707 (bispecific antibody, human IgG1, kappa, lambda, N297G)
light 1: DIQMTQSPSSLSASVGDRITITCRASQSISRYLNWYQQKPGKAPKLLIYAASSLQSGIPSRFSGSGSGTDFTLTINSLQPEDFATYFCQQSYSPPFTFGEGTKVDIKRTVAAPSVFIFPPSDEQLKSGTASVVCLLNNFYPREAKVQWKVDNALQSGNSQESVTEQDSKDSTYSLESTLTLSKADYEKHKVYACEVTHQGLSSPVTKSFNRGEC
heavy 1: not shown
light 2: QSVLTQPPSVSAAPGQKVTISCSGSSSNIGNNYVSWYQQLPGTAPKLLIYDNNKRPSGIPDRFSGSKSGTSATLGITGLQTGDEADYYCGTWDSRLSAVVFGKGTKLTVLGQPKANPTVTLFPPSSEELQANKATLVCLISDFYPGAVTVAWKADGSPVKAGVETTKPSKQSNNKYAAKSYLSLTPEQWKSHRSYSCQVTHEGSTVEKTVAPTECS
heavy 2: QVQLVESGGGVVQPGRSLRLSCAASGFTFSSFGMHWVRQAPGKELEWVAVISFDGSIKYSVDSVKGRFTISRDNSKNTLFLQMNSLRAEDTAVYYCARDRLNYYDSSGYYHYKYYGMAVWGQGTTVTVSSASTKGPSVFPLAPSSKSTSGGTAALGCLVKDYFPEPVTVSWNSGALTSGVHTFPAVLQSSGLYSLESVVTVPSSSLGTQTYICNVNHKPSNTKVDKKVEPKSCDKTHTCPPCPAPELLGGPSVFLFPPKPKDTLMISRTPEVTCVVVDVSHEDPEVKFNWYVDGVEVHNAKTKPCEEQYGSTYRCVSVLTVLHQDWLNGKEYKCKVSNKALPAPIEKTISKAKGQPREPQVYTLPPSRKEMTKNQVSLTCLVKGFYPSDIAVEWESNGQPENNYKTTPPVLKSDGSFFLYSKLTVDKSRWQQGNVFSCSVMHEALHNHYTQKSLSLSPGK
For B2, the “% inhibition of human PAC1” value with human PAC1 receptor came to 72%. Further, the “% inhibition of human CGRPR” value with human CGRP receptor turned out to be 73%.

B3: iPS:327698 (bispecific antibody, human IgG1, kappa, lambda, N297G)
light 1: EIVLTQSPATLSLSPGERATLSCRASQSVGRSLHWYQQKPGQAPRLLIKYASQSLSGIPARFSGSGSGTDFTLTISSLEPEDFAVYYCHQSSRLPFTFGEGTKVDIKRTVAAPSVFIFPPSDEQLKSGTASVVCLLNNFYPREAKVQWKVDNALQSGNSQESVTEQDSKDSTYSLESTLTLSKADYEKHKVYACEVTHQGLSSPVTKSFNRGEC
heavy 1: not shown
light 2: QSVLTQPPSVSAAPGQKVTISCSGSSSNIGNNYVSWYQQLPGTAPKLLIYDNNKRPSGIPDRFSGSKSGTSTTLGITGLQTGDEADYYCGTWDSRLSAVVFGKGTKLTVLGQPKANPTVTLFPPSSEELQANKATLVCLISDFYPGAVTVAWKADGSPVKAGVETTKPSKQSNNKYAAKSYLSLTPEQWKSHRSYSCQVTHEGSTVEKTVAPTECS
heavy 2: QVQLVESGGGVVQPGRSLRLSCAASGFTFSSFGMHWVRQAPGKELEWVAVISFDGSIKYSVDSVKGRFTISRDNSKNTLFLQMNSLRAEDTAVYYCARDRLNYYESSGYYHYKYYGMAVWGQGTTVTVSSASTKGPSVFPLAPSSKSTSGGTAALGCLVKDYFPEPVTVSWNSGALTSGVHTFPAVLQSSGLYSLESVVTVPSSSLGTQTYICNVNHKPSNTKVDKKVEPKSCDKTHTCPPCPAPELLGGPSVFLFPPKPKDTLMISRTPEVTCVVVDVSHEDPEVKFNWYVDGVEVHNAKTKPCEEQYGSTYRCVSVLTVLHQDWLNGKEYKCKVSNKALPAPIEKTISKAKGQPREPQVYTLPPSRKEMTKNQVSLTCLVKGFYPSDIAVEWESNGQPENNYKTTPPVLKSDGSFFLYSKLTVDKSRWQQGNVFSCSVMHEALHNHYTQKSLSLSPGK
With B3, the “% inhibition of human PAC1” value in the assay with human PAC1 receptor amounted to 96%. Moreover, the “% inhibition of human CGRPR” value with human CGRP receptor stood at 90%.

B4: iPS:326634 (bispecific antibody, human IgG2, kappa, lambda)
light 1: DIQLTQSPSFLSASVGDRVTITCRASQSIGRSLHWYQQKPGKAPKLLIKYASQSLSGVPSRFSGSGSGTEFTLTISSLQPEDFATYYCHQSSRLPFTFGPGTKVDIKRTVAAPSVFIFPPSDEQLKSGTASVVCLLNNFYPREAKVQWKVDNALQSGNSQESVTEQDSKDSTYSLESTLTLSKADYEKHKVYACEVTHQGLSSPVTKSFNRGEC
heavy 1: QVQLVESGAEVVKPGASVKVSCKASGFTFSRFAMHWVRQAPGQGLEWMGVISYDGGNKYYAESVKGRVTMTRDTSTSTLYMELSSLRSEDTAVYYCARGYDVLTGYPDYWGQGTLVTVSSASTKGPSVFPLAPCSRSTSESTAALGCLVKDYFPEPVTVSWNSGALTSGVHTFPAVLQSSGLYSLKSVVTVPSSNFGTQTYTCNVDHKPSNTKVDKTVERKCCVECPPCPAPPVAGPSVFLFPPKPKDTLMISRTPEVTCVVVDVSHEDPEVQFNWYVDGVEVHNAKTKPREEQFNSTFRVVSVLTVVHQDWLNGKEYKCKVSNKGLPAPIEKTISKTKGQPREPQVYTLPPSREEMTKNQVSLTCLVDGFYPSDIAVEWESNGQPENNYDTTPPMLDSDGSFFLYSDLTVDKSRWQQGNVFSCSVMHEALHNHYTQKSLSLSPGK
light 2: not shown
heavy 2: not shown
Turning to B4, the “% inhibition of human PAC1” value with human PAC1 receptor was 43%. The “% inhibition of human CGRPR” value with human CGRP receptor was determined as 66%.

B5: iPS:327699 (bispecific antibody, human IgG1, kappa, lambda, N297G)
light 1: not shown
heavy 1: not shown
light 2: QSVLTQPPSVSAAPGQKVTISCSGSSSNIGNNYVSWYQQLPGTAPKLLIYDNNKRPSGIPDRFSGSKSGTSTTLGITGLQTGDEADYYCGTWDSRLSAVVFGGGTKLTVLGQPKANPTVTLFPPSSEELQANKATLVCLISDFYPGAVTVAWKADGSPVKAGVETTKPSKQSNNKYAAKSYLSLTPEQWKSHRSYSCQVTHEGSTVEKTVAPTECS
heavy 2: QVQLVESGGGVVQPGRSLRLSCAASGFTFSSFGMHWVRQAPGKGLEWVAVISFDGSIKYSVDSVKGRFTISRDNSKNTLFLQMNSLRAEDTAVYYCARDRLNYYESSGYYHYKYYGMAVWGQGTTVTVSSASTKGPSVFPLAPSSKSTSGGTAALGCLVKDYFPEPVTVSWNSGALTSGVHTFPAVLQSSGLYSLESVVTVPSSSLGTQTYICNVNHKPSNTKVDKKVEPKSCDKTHTCPPCPAPELLGGPSVFLFPPKPKDTLMISRTPEVTCVVVDVSHEDPEVKFNWYVDGVEVHNAKTKPCEEQYGSTYRCVSVLTVLHQDWLNGKEYKCKVSNKALPAPIEKTISKAKGQPREPQVYTLPPSRKKMTKNQVSLTCLVKGFYPSDIAVEWESNGQPENNYKTTPPVLKSDGSFFLYSKLTVDKSRWQQGNVFSCSVMHEALHNHYTQKSLSLSPGK
B5: in the assay with human PAC1 receptor, the “% inhibition of human PAC1” value was 92%. In addition, in the assay with human CGRP receptor, the “% inhibition of human CGRPR” value amounted to 72%.

B6: iPS:327708 (bispecific antibody, human IgG1, kappa, lambda, N297G)
light 1: not shown
heavy 1: not shown
light 2: QSVLTQPPSVSAAPGQKVTISCSGSSSNIGNNYVSWYQQLPGTAPKLLIYDNNKRPSGIPDRFSGSKSGTSATLGITGLQTGDEADYYCGTWDSRLSAVVFGKGTKLTVLGQPKANPTVTLFPPSSEELQANKATLVCLISDFYPGAVTVAWKADGSPVKAGVETTKPSKQSNNKYAAKSYLSLTPEQWKSHRSYSCQVTHEGSTVEKTVAPTECS
heavy 2: QVQLVESGGGVVQPGRSLRLSCAASGFTFSSFGMHWVRQAPGKELEWVAVISFDGSIKYSVDSVKGRFTISRDNSKNTLFLQMNSLRAEDTAVYYCARDRLNYYDSSGYYHYKYYGMAVWGQGTTVTVSSASTKGPSVFPLAPSSKSTSGGTAALGCLVKDYFPEPVTVSWNSGALTSGVHTFPAVLQSSGLYSLESVVTVPSSSLGTQTYICNVNHKPSNTKVDKKVEPKSCDKTHTCPPCPAPELLGGPSVFLFPPKPKDTLMISRTPEVTCVVVDVSHEDPEVKFNWYVDGVEVHNAKTKPCEEQYGSTYRCVSVLTVLHQDWLNGKEYKCKVSNKALPAPIEKTISKAKGQPREPQVYTLPPSRKEMTKNQVSLTCLVKGFYPSDIAVEWESNGQPENNYKTTPPVLKSDGSFFLYSKLTVDKSRWQQGNVFSCSVMHEALHNHYTQKSLSLSPGK
As for B6, the “% inhibition of human PAC1” value with human PAC1 receptor turned out to be 18%. Besides, the “% inhibition of human CGRPR” value with human CGRP receptor came out at 79%.
